Consider 3 molecules from US20180037638A1.

Test [1] addresses auto-inducing peptide (AIP) 2 (Staphylococcus aureus). In words: SPR, antibody immobilized on CM5 chip, AIP2 as analyte, 1:1 Langmuir fit. In general terms: SPR reads the build-up and loss of mass on a sensor chip optically.
Test [2] has the same target. In words: cell-based or functional assay.

As usually defined, the Kd is the constant that tells how readily two partners part at equilibrium. A higher Kd goes with a looser complex.

B1: D3 (antibody, V domains shown)
VH: EVQLVQSGAEVKKPGSSVKVSCKAYGGTFGSYGVSWVRRAPGQGLEWMGRLIPIFGTRDYAQKFQGRVTLTADESTNTAYMELSSLRSEDTAVYYCARDGDYYGSGSYYGMDVWGQGTLVTVSS
VL: SYELTQPPSASGSPGQSVTISCTGTSSDVGGYNYVSWYQQHPGKAPKVMIYEVSKRPSGVSNRFSGSKSGNTASLTISGLQAEDEADYYCSSYTSSSTHVVFGGGTKVTVL
In test [1], B1 yielded a Kd of 49 nM.

B2: C7 (antibody, V domains shown)
VH: EVQLVQSGAEMKKPGASMKVSCKTSGYTFARKYMHWLRQAPGQGLEWMGIINPTGGTKSYAPKFQGRVTMTSDMSTNTVYMELNSLRSEDTAVYYCVSDDEEPVWGQGTMVTVSS
VL: QSALTQPPSVSKGLRQTATLTCTGNSNNVGSQGAAWLQQHQGHPPKVLSYRNNNRPSGISERFSASRSGNTASLTITGLQPEDEGDYYCSAWDSSLSAPVFGGGTKLTVL
Regarding B2, in test [2], the Inhibition of AIP2 QS (IC50; nM), agr-driven YFP reporter strain USA100-AH2619 stood at 33.7 nM and the Inhibition of AIP2 QS (IC50; nM), agr-driven YFP reporter strain USA100-AH2625 stood at 31.2 nM.

B3: E7 (antibody, V domains shown)
VH: EVQLVQSGAEVKKPGASVRVSCKTSGYSFTSYDINWVRQTTGQGLEWMGWVNPTSGSTGYAQKFQGRVTMTANTAINTAYMELRDLRSEDTAVYFCVRDVPFDPWGQGTLVTVSS
VL: LQSVLTQPASVSGSPGQSITISCTGTSSDVGKYTFVSWYQQHPGKAPKVMVYEVNKRPLGVSPRFSGSKSGNTAYLTISGLQAEDEADYYCSSYTSSSTVVFGGGTKLTVL
In test [2], B3 displayed an Inhibition of AIP2 QS (IC50; nM), agr-driven YFP reporter strain USA100-AH2619 of 34.2 nM and an Inhibition of AIP2 QS (IC50; nM), agr-driven YFP reporter strain USA100-AH2625 of 31 nM.
